Data taken from the DeepSol protein solubility set.

experiment: soluble on expression in E. coli; label from the status in PepcDB or PDB records

Row | Sequence | soluble on expression in E. coli
1 | MSLKLTPEAAGTFAIAPTPFHDDGKIDDVSIDRLTDFYAEVGCEGVTVLGILGEAPKLDAAEAEAVATRFIKRAKSMQVIVGVSAPGFAAMRRLARLSMDAGAAGVMIAPPPSLRTDEQITTYFRQATEAIGDDVPWVLQDYPLTLSVVMTPKVIRQIVMDSASCVMLKHEDWPGLEKITTLRGFQKDGSLRPLSILCGNGGLFLDFEMERGADGAMTGYCFPDMLVDVVKLSKAGQRDLAHNLFDAHLPLIRYEHQQGVGLSVRKYVLKKRGLLSSSAQRKPGASLTDTAREEVDYLLSRLARVDKRADFEPRTKAAEEGHHHHHH | soluble
2 | MGSDKIHHHHHHMSETEDSIVGIKDKELKMIRKILNRYEMKLVDIKKIRSIYKIKTENSTVCLKKVSHEFKKVENGNYLVRELKKNNFNNIADYISTKDGKLIVFYKNLAFYLTEWVDGEECNLNDINEAINASKLLAKFHLATQNINFHKIKLKNNNSKNWVEIFAKCLRDMESFKSIIQNKRIKNKFDFMYEDLIESYYNRGLFSIKILNESSYFKIIKGSNNKKTVCHNSFYYQNIIKGKKDYYIIHLNSIIIDLPITDLCKMIRTLMTKKEYMWNFEKAKQIIQAYNSVNKLSKDEMEVMLALIAFPHKFWKLGKKRYVRHKNWSENKYINKLNKIVLNNKCEQSFIEEYISYLDDIKEFTNFN | not soluble
3 | MGSDKIHHHHHHMLLQRSTWPEVEAYLQQSDGIIIPIGSTEQHGPTGLIGTDAICAEAIAQGVADRTQALVGPTINVGMALHHLGFPGSVSLRPSTLLQVIVDYLSSLAQHGFRHFYFINGHGGNIATVRAAFAEFYAVAGDRRCPEPDRLRCHLANWFMVPAVTKLARELYGDEEGSHATPSEVALTQFIYPDSIKTAPLTVEVHSSHAIYAADDFRRRYPDGRMGSNPALATPEHGQQFYESAVAELSQSYQAFLAAD | not soluble
4 | LQEPMYVYSHDGLLIAIFGEIRRYPVQIKEVPEQLKQAFLATEDARFYEHSGIDYKGIARAIWLLATTNEKRVPGGSTITQQVARQFFLNSEYSYKRKLAEILLARKIESQLKKDEILELYLNKSFFGNRAYGIAAAAEFYYGKKLNELNLDEMASLAGIPKFPSS | not soluble
5 | MALIVQKFGGTSVGTVERIQAVAQRIKRTVQGGNSLVVVVSAMGKSTDVLVDLAQQISPNPCRREMDMLLSTGEQVSIALLSLALQEIDQPAISLTGAQVGIVTEAEHSRARILEIRPDRLEHHLREGKVVVVAGFQGISSVEHLEITTLGRGGSDTSAVALAAALKADFCEIYTDVPGILTTDPRLVPEAQLMAEITCDEMLELASLGAKVLHPRAVEIARNYGIPLVVRSSWSDEPGTKVVAPPVQNRSLVGLEIAKAVDGVEYDADQAKVALLRVPDRPGVASKLFRDIAQQQVDIDLIIQSIHDGNSNDIAFTVVKDLLNTAEAVTSAIAPALRSYPEADQEAEIIVEKGIAKIAIAGAGMIGRPGIAAKMFKTLADVGVNIEMISTSEVKVSCVIDQRDADRAIAALSNAFGVTLSPPKNQTDTSHLPAVRGVALDQDQAQIAIRHVPDRPGMAAQLFTALAEANISVDMIIQSQRCRINQGTPCRDIAFMVAEGDSSQAEAILQPLIKDWLDAAIVVNKAIAKVSIVGSGMIGHPGVAAHFFAALAQENINIEMIATSEIKISCVVPQDRGVDALKAAHSAFNLAGTKTVTVPA | soluble
6 | MPNLPQKAQQRQPQEHKSRHKATDDTEAPKQQQQQQQQQQSFDVATNANGSSLPASRVKNPEEPGGKSPLVPMRQHHSKVTRPPPPPTLFLENSLLQRQFANPISYLGGPRLQPRSNRTSIDSILSLDLEHHHHHH | not soluble
7 | MSTGKIIQVIGAVIDVEFARDNTPKVYDALNVVEAGLVLEVQQQIGDGVVRTIAMGSSDGLRRGMEVKNTNAPISVPVGHGTLGRIMNVLGEPIDEAGPIEYTEKRSIHQAPPAYDELALSTEILETGIKVVDLICPFAKGGKVGLFGGAGVGKTVTMMELINNIAKEHSGYSVFAGVGERTREGNDFYYEMKDSNVLDKVSLVYGQMNEPPGNRLRVALSGLTIAEGFRDEKRDVLMFIDNIYRYTLAGTEVSALLGRMPSAVGYQPTLAAEMGALQERITSTKTGSITSVQAVYVPADDLTDPSPATTFSHLDATIVLSRQIAELGIYPAVDPLDSTSRQLDPLVVGQDHYETARAVQKVLQRYKELKDIIAILGMDELSDEDKKIVDRARKIQRFLSQPFHVAEVFTGNPGKFVSLKDTVASFKAIVNGEYDHLPEQAFYMVGSIQEAIEKAKTL | not soluble
8 | MKEIDIIQQIKLGEVSKVQFKERLLDNYDIGCELVAFSNARGGTLVVGAVDKTGNINPLSYLEVQETTNTLSNIASENVVPAILVDVETISVDGGSLVVAHIKEGLNKPYHDNRGIVWVKNGADKRKVFDNAELAEMMTDCGSFSPDEAGVRDATIKDLDEGTIKTFLSNKFDKVLARKGLVGDAFREASLDTVCSAIASGHNGEKLLRNLRFIRPDGKITVAAMLLFGKYTQRWLPMMTAKCICFVGNNLGGTQFRDKVNDADIEGNLLHQFETIMDFFTRNLRHIQVGNEFNSQGVLEIPYTSLVEFTVNALVHRSLNATAPIRIFIFDDRVEIHSPGILPNGLTVDDIVIGTSMPRNMFLFTNAIHLLPYTGAGSGMLRALSEDVNVSFTNNDRTNEFVITINRQISNQPNADSDTDLDTDSDTFNADSDTKLRYSDTDLDTDSDTFNADSDTIRPKITNKQRDIVNFCSVPRSSKEILERVGVTYHSKNIQTYIMSLIEAGYLEMTNPEHPNASNQKYRRSKKLEHHHHHH | soluble
9 | MSLQKLAFSYVRFSSLKQRHGDSLKRQTDMVANWLLANPEYKLSGETSYQDLGKSGFSGAHLDNAFGRLLAAIENGAIPKGSAILIEQIDRAGRMEPMEMLPLLSRIVNAGVDLVTLDDGITYDRASVNSNHLFLLVAKVQQAHQYSDSLSRRLRAAYQTKRAKAAAGEGATRRMPLWIRDGKLRDDIAPFVTQVFEDYAAGIGERRILGRLKGQHPDFETISPSTFRRWLRNPVAVGRWNDIEDVWPAVVSKELWFRVQKRLTDGVKPKAASSKYLLSGLVKCARCGKNYCVGGQKGALTMLCVSRHRFGSGAGGCTNKRSIPYAVFDFIRSQTAHAALVRASQSQNLTASEKRQIEIDGELIELRKQSSHAAEGLVRYGMVKEITDVLDRVTDQIDRLEKERVMLQAVPAPATLDDMIDVENDLLDDDIVKLNALLQGVGYEMVVDDRTIVVCEASVFSTLQSQTYRYIGADRVTGTYKVTANDEVLHHLPNLDSKVQQDEYAEFLKKEARYESGELKRDEFRFNLETGEINREGHHHHHH | not soluble
10 | GSDSAITLWQFLLQLLQKPQNKHMICWTSNDGQFKLLQAEEVARLWGIRKNKPNMNYDKLSRALRYYYVKNIIKKVNGQKFVYKFVSYPEILNMDPMTVGRIEGDCESLNFSEVSSSSKDVENGGKDKPPQPGAKTSSRNDYIHSGLYSSFTLNSLN | soluble
11 | MMINFEAIIGIEVHVVLNTATKMFSPAPNQAQNATPNQFINAIDLGLPGTMPQVNEQAVQKALILADALNMQRVQPVLVFDRKHYFYQDLPKGFQITQQNFPIAQNGYVEIVENNKAQRIIIERFHLEEDTAKQHFVDGQILLDFNRCGAPLIEVVTAPVIKSAKQSKAYLQKLRQILIVNNISNAKLEDGSMRSDCNVSVRLKGQTAFGTKVEIKNINSLNNVEKAIDLEIARQVKALIKGEPVQQVTLTYDDKTNTNVFMRKKDNSVDYRYFIEPNIMSSNIDELLQKPNKAFNLTEFFTKLKEAGVNEQLNQLVVDDLTLFNAYTKINSVINSPQDTIRWLCIELMGQLNKLQKPLKDKTIDHLIILIQMVQKGTVNQKQAKQLIELMLDNGQDPQSLAKLHNLEQITDEKQLTQIIQQIFKENEGEILKNLDRVERIQKLIIGQVMQRTHNRANPQQVFIIVEKLLHDFSERAS | not soluble
12 | MKATVSTIDNRGNLGKVLKDVTSKDSIKGYTVAAATAGVAQGLNYNPSAMGLDAKSLQTVAVKVTADALIKTAVYGGSFKDNLASAAAGTAASIGGAYGAGKIGDLGLTEGGLAKIALHAGLGGLLSEAMGGDFRTGAIAGGANELLVGVLGDKLEHHHHHH | not soluble
13 | MSLSIPDRRAKLDRAHGVLSIRRQCRLLGLSRSSVYRTPLPANDDDLALMRRIDELFTARPFLGSRRMAWLISEDGVRINRKRVQRLMRKMGIEALGPKPRTSKPAPGHRIYPYLLRAMTIDRPNQVWATDITYIPMGRGFLYLVAVIDWASRAVLSWRLSNTMDVSFCVDALEEALSRFGKPQIFNTDQGSQFTSAAFTSVLEAAGIQISMDGRGRWMDNVFIERLWRSLKHEDVYLKFNEGHHHHHH | not soluble
14 | SNRHLCKECFKKDIERRAKKVLGKDIIRNNVKIGIGISGGKDSLVMAYILKELFKHIPNAKLICFFVDEGIKGFRNIAEKYVKEFCKEYNLDLKIIKFEDEIGYTLDEIVKNDYLSKLNIGKPCSFCGVVRRYLLNKHALKEGCDYLAIGHNLDDFCQTILMNYVEGNIKNIIQFGKEFEGGGFVKRIKPLKLIPEEEVKLYAEINNIKYQREPC | not soluble
15 | TVAYIAIGSNLASPLEQVNAALKALGDIPESHILTVSSFYRTPPLGPQDQPDYLNAAVALETSLAPEELLNHTQRIELQQGRVRKAERWGPRTLDLDIMLFGNEVINTERLTVPHYDMKNRGFMLWPLFEIAPELVFPDGEMLRQILHTRAFDKLNKW | soluble
16 | MAHHHHHHMSTRKEPPKVLKGAAYTECSPISDVSHHKASASKAFLENHYRGMLRDTRSGNTARPVGPRPREPCVDDFVLVKRIGKGAFGEVYLCYKKYDNDKQLYALKRMRKTDMIRKKQISHVRSEKDVMAEAASTNPWVVKLYLSFQDEQYLYMVMEYMPGGDMISWLCIKQRFDVESTRFYIAELCAAVASVHDMFFVHRDIKPDNILLDAKGHIKLTDFGLSKRFAKVGEELLDLEEGNDALCSSNSSANLSNTCGSTCQGPNSVPVVSPHNPHSPTANYNSLTPAGSHASAHPQARRIFESIVGSPGYIAPEILLRQRYGVNCDWWSVGVIMYEMLYGIPPFFSSDTSSTCHKITHWREYLTYPSDRGVPPEATDLLRRLMCDQRDRLDFQGVKEHPFFNDIDWERLRETPPAFVPELSDPLDTHYFPEVEDNTPQQHHQRPEERNAVREVDPRGVIFADYKFNLKR | soluble
17 | MSLAQQSYPNKPIRVIVPFAAGSTTDIIARAIADKMGQSMGQSLVVDNRSGASGTIGQQAVATAPADGYTLMVHSSSHTVSPSTFAKLPFDTQADFAGVTPISSLPNALVIAPAKNIRTLQALLAAARARPGSINFASAGQGSATHLNAEKFRLAARIEATNIPFKGSAEAVTEVLSGRVDYYFSPIAPVIGQIRDGQLLALAVGSPKRAAALPEVPTTAEAGVPGSEFNFWIGMMAPAKTPRAIVERLHDEVVKALATPEVKERFLKLGADAWTLRPEQFDAYIKQEIASNAQLVQAAGLQVPQEGHHHHHH | soluble
18 | EVQLQQSGPELKKPGETVKISCKATNYAFTDYSMHWVKQAPGGDLKYVGWINTETDEPTFADDFKGRFAFSLDTSTSTAFLQINNLKNEDTATYFCVRDRHDYGEIFTYWGQGTTVTVSA | soluble
19 | MTVTFQNNPVSISGSFPKVGDRLPSFTLCGADLNDLSNEDFKGKKIVMSIFPSIDTPVCSKSVKVLQNALMTRNDTVLLCVSADLPFAMSRFCTEHAVANVTNASFFREPAFTERFGVNLNEGALRGLAARAVIVADEFGVITHSELVNEITNEPDYDRILMSL | not soluble
